# Results from patent US20200024330A1.
# Columns and labels:
# [1] = molecular target: WT JR-FL gp120 (HIV-1 (isolate JR-FL)); experiment: ELISA on coated gp120; EC50 by nonlinear regression
# [2] = molecular target: HIV-1 JR-CSF Env P313A (HIV-1 JR-CSF) (UniProt P20871); experiment: cell-based or functional assay
# [3] = molecular target: HIV-1 JR-CSF Env I307A (HIV-1 JR-CSF) (UniProt P20871); experiment: cell-based or functional assay
# [4] = molecular target: HIV-1 JR-CSF Env T297A (HIV-1 JR-CSF) (UniProt P20871); experiment: cell-based or functional assay
# [5] = molecular target: HIV-1 JR-CSF Env S334A (HIV-1 isolate JR-CSF) (UniProt P20871); experiment: cell-based or functional assay
# [6] = molecular target: Env of the clade F HIV-1 pseudoviruses of the cross-clade 162-pseudovirus panel (n = 15); experiment: cell-based or functional assay
# [7] = molecular target: Env of the clade C HIV-1 pseudoviruses of the cross-clade 162-pseudovirus panel (n = 27); experiment: cell-based or functional assay
# [8] = molecular target: Env of the clade A HIV-1 pseudoviruses of the cross-clade 162-pseudovirus panel (n = 26); experiment: cell-based or functional assay
# [9] = molecular target: Env of the clade D HIV-1 pseudoviruses of the cross-clade 162-pseudovirus panel (n = 25); experiment: cell-based or functional assay
# [10] = molecular target: HIV-1 JR-CSF Env N339A (HIV-1 isolate JR-CSF) (UniProt P20871); experiment: cell-based or functional assay
# [11] = molecular target: HIV-1 JR-CSF Env E321aA (HIV-1 isolate JR-CSF) (UniProt P20871); experiment: cell-based or functional assay
# [12] = molecular target: HIV-1 JR-CSF Env F317A (HIV-1 isolate JR-CSF) (UniProt P20871); experiment: cell-based or functional assay
# [13] = molecular target: HIV-1 JR-CSF Env I420A (HIV-1 (isolate JR-CSF)) (UniProt P20871); experiment: cell-based or functional assay
# [14] = molecular target: HIV-1 JR-CSF Env D325A (HIV-1 isolate JR-CSF) (UniProt P20871); experiment: cell-based or functional assay
# [15] = molecular target: HIV-1 JR-CSF Env T320A (HIV-1 isolate JR-CSF) (UniProt P20871); experiment: cell-based or functional assay
# [16] = molecular target: HIV-1 Env of isolate JR-CSF (HIV-1) (UniProt P20871); experiment: cell-based or functional assay
# [17] = molecular target: HIV-1 JR-CSF Env N295A (HIV-1 JR-CSF) (UniProt P20871); experiment: cell-based or functional assay
# [18] = molecular target: HIV-1 Env of isolate MGRM-C-026 (HIV-1); experiment: cell-based or functional assay
# [19] = molecular target: HIV-1 JR-CSF Env R350A (HIV-1 isolate JR-CSF) (UniProt P20871); experiment: cell-based or functional assay
# [20] = molecular target: HIV-1 JR-CSF Env K343A (HIV-1 isolate JR-CSF) (UniProt P20871); experiment: cell-based or functional assay
# [21] = molecular target: HIV-1 JR-CSF Env R315A (HIV-1 isolate JR-CSF) (UniProt P20871); experiment: cell-based or functional assay
# [22] = molecular target: HIV-1 JR-CSF Env F210A (HIV-1 JR-CSF) (UniProt P20871); experiment: cell-based or functional assay
# [23] = molecular target: HIV-1 JR-CSF Env T341A (HIV-1 isolate JR-CSF) (UniProt P20871); experiment: cell-based or functional assay
# [24] = molecular target: HIV-1 JR-CSF Env I309A (HIV-1 JR-CSF) (UniProt P20871); experiment: cell-based or functional assay
# [25] = molecular target: HIV-1 JR-CSF Env S199A (HIV-1 JR-CSF) (UniProt P20871); experiment: cell-based or functional assay
# [26] = molecular target: HIV-1 JR-CSF Env N262A (HIV-1 JR-CSF) (UniProt P20871); experiment: cell-based or functional assay
# [27] = molecular target: HIV-1 JR-CSF Env R419A (HIV-1 (isolate JR-CSF)) (UniProt P20871); experiment: cell-based or functional assay
# [28] = molecular target: HIV-1 JR-CSF Env N411A (HIV-1 (isolate JR-CSF)) (UniProt P20871); experiment: cell-based or functional assay
# [29] = molecular target: HIV-1 JR-CSF Env T303A (HIV-1 JR-CSF) (UniProt P20871); experiment: cell-based or functional assay
# [30] = molecular target: HIV-1 JR-CSF Env N276A (HIV-1 JR-CSF) (UniProt P20871); experiment: cell-based or functional assay
# [31] = molecular target: HIV-1 JR-CSF Env T394A (HIV-1 (isolate JR-CSF)) (UniProt P20871); experiment: cell-based or functional assay
# [32] = molecular target: HIV-1 JR-CSF Env H330A (HIV-1 isolate JR-CSF) (UniProt P20871); experiment: cell-based or functional assay
# [33] = molecular target: HIV-1 JR-CSF Env T388A (HIV-1 (isolate JR-CSF)) (UniProt P20871); experiment: cell-based or functional assay
# [34] = molecular target: Env of the clade G HIV-1 pseudoviruses of the cross-clade 162-pseudovirus panel (n = 15); experiment: cell-based or functional assay
# [35] = molecular target: HIV-1 JR-CSF Env N301A (HIV-1 JR-CSF) (UniProt P20871); experiment: cell-based or functional assay
# [36] = molecular target: HIV-1 JR-CSF Env N386A (HIV-1 isolate JR-CSF) (UniProt P20871); experiment: cell-based or functional assay
# [37] = molecular target: HIV-1 Env of isolate 92TH021 (HIV-1); experiment: cell-based or functional assay
# [38] = molecular target: HIV-1 JR-CSF Env S393A (HIV-1 (isolate JR-CSF)) (UniProt P20871); experiment: cell-based or functional assay
# [39] = molecular target: JR-FL gp120 ΔV1/ΔV2 (HIV-1 (isolate JR-FL)); experiment: ELISA on coated gp120; EC50 by nonlinear regression
binder,measurement,setting,value
"PGT-130 (antibody, V domains shown) VH: QVQLQESGPGLVKPAETLSLTCSVSGESINTGHYYWGWVRQVPGKGLEWIGHIHYTTAVLHNPSLKSRLTIKIYTLRNQITLRLSNVTAADTAVYHCVRSGGDILYYYEWQKPHWFSPWGPGIHVTVSS VL: QSALTQPPSASGSLGQSVTISCNGTSSDIGGWNFVSWYQQFPGRAPRLIIFEVNKRPSGVPGRFSGSKSGNSASLTVSGLQSDDEGQYFCSSLFGRWDVVFGGGTKLTVL",EC50,[1],0.2 µg/mL
same,Fold IC50 increase relative to wild-type,[2],0.3 fold
same,Fold IC50 increase relative to wild-type,[3],1000 fold
same,Fold IC50 increase relative to wild-type,[4],0.9 fold
same,Fold IC50 increase relative to wild-type,[5],0.5 fold
same,Median IC50 against viruses neutralized with an IC50 <50 µg/ml,[6],0.07 µg/mL
same,Median IC50 against viruses neutralized with an IC50 <50 µg/ml,[7],0.15 µg/mL
same,Median IC50 against viruses neutralized with an IC50 <50 µg/ml,[8],0.09 µg/mL
same,Median IC50 against viruses neutralized with an IC50 <50 µg/ml,[9],0.65 µg/mL
same,Fold IC50 increase relative to wild-type,[10],0.2 fold
same,Fold IC50 increase relative to wild-type,[11],1.7 fold
same,Fold IC50 increase relative to wild-type,[12],17 fold
same,Fold IC50 increase relative to wild-type,[13],9.8 fold
same,Fold IC50 increase relative to wild-type,[14],> 1000 fold
same,Fold IC50 increase relative to wild-type,[15],0.9 fold
same,Polyclonal Transfectant Neutralization Index (well 5147 N6),[16],1.24
same,Primary Neutralization Index (B cell culture well 5147 N6),[16],19.3
same,Fold IC50 increase relative to wild-type,[17],0.7 fold
same,Polyclonal Transfectant Neutralization Index (well 5147 N6),[18],1.05
same,Primary Neutralization Index (B cell culture well 5147 N6),[18],3
same,Fold IC50 increase relative to wild-type,[19],0.5 fold
same,Fold IC50 increase relative to wild-type,[20],1.1 fold
same,Fold IC50 increase relative to wild-type,[21],0.6 fold
same,Fold IC50 increase relative to wild-type,[22],1.7 fold
same,Fold IC50 increase relative to wild-type,[23],0.8 fold
same,Fold IC50 increase relative to wild-type,[24],> 77.9 fold
same,Fold IC50 increase relative to wild-type,[25],0.9 fold
same,Fold IC50 increase relative to wild-type,[26],0.7 fold
same,Fold IC50 increase relative to wild-type,[27],2.6 fold
same,Fold IC50 increase relative to wild-type,[28],0.6 fold
same,Fold IC50 increase relative to wild-type,[29],> 250 fold
same,Fold IC50 increase relative to wild-type,[30],1 fold
same,Fold IC50 increase relative to wild-type,[31],1.2 fold
same,Fold IC50 increase relative to wild-type,[32],0.9 fold
same,Fold IC50 increase relative to wild-type,[33],1 fold
same,Median IC50 against viruses neutralized with an IC50 <50 µg/ml,[34],4.14 µg/mL
same,Fold IC50 increase relative to wild-type,[35],> 1000 fold
same,Fold IC50 increase relative to wild-type,[36],0.1 fold
same,Polyclonal Transfectant Neutralization Index (well 5147 N6),[37],4.2
same,Primary Neutralization Index (B cell culture well 5147 N6),[37],538
same,Fold IC50 increase relative to wild-type,[38],0.7 fold
"PGT-135 (antibody, V domains shown) VH: QLQMQESGPGLVKPSETLSLSCTVSGDSIRGGEWGDKDYHWGWVRHSAGKGLEWIGSIHWRGTTHYKESLRRRVSMSIDTSRNWFSLRLASVTAADTAVYFCARHRHHDVFMLVPIAGWFDVWGPGVQVTVSS VL: EIVMTQSPDTLSVSPGETVTLSCRASQNINKNLAWYQYKPGQSPRLVIFETYSKIAAFPARFVASGSGTEFTLTINNMQSEDVAVYYCQQYEEWPRTFGQGTKVDIK",EC50,[1],0.1 µg/mL
same,EC50,[39],0.1 µg/mL
same,Fold IC50 increase relative to wild-type,[2],0.5 fold
same,Fold IC50 increase relative to wild-type,[3],0.3 fold
same,Fold IC50 increase relative to wild-type,[4],> 30 fold
same,Fold IC50 increase relative to wild-type,[5],> 30 fold
same,Median IC50 against viruses neutralized with an IC50 <50 µg/ml,[6],0.21 µg/mL
same,Median IC50 against viruses neutralized with an IC50 <50 µg/ml,[7],0.05 µg/mL
same,Median IC50 against viruses neutralized with an IC50 <50 µg/ml,[8],0.64 µg/mL
same,Median IC50 against viruses neutralized with an IC50 <50 µg/ml,[9],1.09 µg/mL
same,Fold IC50 increase relative to wild-type,[10],1.2 fold
same,Fold IC50 increase relative to wild-type,[11],0.8 fold
same,Fold IC50 increase relative to wild-type,[12],0.5 fold
same,Fold IC50 increase relative to wild-type,[13],1.4 fold
same,Fold IC50 increase relative to wild-type,[14],0.5 fold
same,Fold IC50 increase relative to wild-type,[15],0.5 fold
same,Primary Neutralization Index (B cell culture well 5343 B8),[16],1.8
same,Primary Neutralization Index (B cell culture well 5344 E16),[16],1.5
same,Fold IC50 increase relative to wild-type,[17],> 18 fold
same,Primary Neutralization Index (B cell culture well 5343 B8),[18],6.5
same,Primary Neutralization Index (B cell culture well 5344 E16),[18],3.6
same,Fold IC50 increase relative to wild-type,[19],0.9 fold
same,Fold IC50 increase relative to wild-type,[20],1.1 fold
same,Fold IC50 increase relative to wild-type,[21],1.8 fold
same,Fold IC50 increase relative to wild-type,[22],1.3 fold
same,Fold IC50 increase relative to wild-type,[23],0.6 fold
same,Fold IC50 increase relative to wild-type,[24],0.3 fold
same,Fold IC50 increase relative to wild-type,[25],0.3 fold
same,Fold IC50 increase relative to wild-type,[26],2.1 fold
same,Fold IC50 increase relative to wild-type,[27],3.9 fold
same,Fold IC50 increase relative to wild-type,[28],0.2 fold
same,Fold IC50 increase relative to wild-type,[29],0.3 fold
same,Fold IC50 increase relative to wild-type,[30],2.5 fold
same,Fold IC50 increase relative to wild-type,[31],> 75 fold
same,Fold IC50 increase relative to wild-type,[32],> 250 fold
same,Fold IC50 increase relative to wild-type,[33],0.1 fold
same,Median IC50 against viruses neutralized with an IC50 <50 µg/ml,[34],0.14 µg/mL
same,Fold IC50 increase relative to wild-type,[35],0.5 fold
same,Fold IC50 increase relative to wild-type,[36],0.3 fold
same,Fold IC50 increase relative to wild-type,[38],0.9 fold
